Laboratory results from patent US20180057581A1 (MorphoSys, published 2018).

Assays:
Experiment in all cases: MSD specificity profiling, coated protein, Camille at 10 nM
Fibrinogen (bovine) = target: T1, Fibrinogen (bovine) (bovine, UniProt P02672 20-615; P02676 1-468; P12799 25-444)
T1 sequence (looked up) 1: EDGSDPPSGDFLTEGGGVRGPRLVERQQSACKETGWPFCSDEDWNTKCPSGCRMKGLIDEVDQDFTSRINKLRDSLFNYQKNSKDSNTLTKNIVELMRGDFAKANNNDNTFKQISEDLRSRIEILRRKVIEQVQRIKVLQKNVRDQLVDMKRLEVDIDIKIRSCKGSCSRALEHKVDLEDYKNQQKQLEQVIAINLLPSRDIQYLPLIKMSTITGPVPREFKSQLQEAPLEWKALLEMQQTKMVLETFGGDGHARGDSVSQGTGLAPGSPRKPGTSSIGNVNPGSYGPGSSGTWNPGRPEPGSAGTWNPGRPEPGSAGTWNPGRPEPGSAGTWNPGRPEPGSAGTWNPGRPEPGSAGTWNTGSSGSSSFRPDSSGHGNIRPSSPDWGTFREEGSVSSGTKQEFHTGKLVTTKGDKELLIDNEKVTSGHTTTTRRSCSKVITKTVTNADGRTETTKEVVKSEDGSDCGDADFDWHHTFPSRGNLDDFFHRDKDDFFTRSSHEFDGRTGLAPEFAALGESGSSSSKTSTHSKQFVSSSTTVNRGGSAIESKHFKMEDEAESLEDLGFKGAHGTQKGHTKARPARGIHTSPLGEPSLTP
T1 sequence (looked up) 2: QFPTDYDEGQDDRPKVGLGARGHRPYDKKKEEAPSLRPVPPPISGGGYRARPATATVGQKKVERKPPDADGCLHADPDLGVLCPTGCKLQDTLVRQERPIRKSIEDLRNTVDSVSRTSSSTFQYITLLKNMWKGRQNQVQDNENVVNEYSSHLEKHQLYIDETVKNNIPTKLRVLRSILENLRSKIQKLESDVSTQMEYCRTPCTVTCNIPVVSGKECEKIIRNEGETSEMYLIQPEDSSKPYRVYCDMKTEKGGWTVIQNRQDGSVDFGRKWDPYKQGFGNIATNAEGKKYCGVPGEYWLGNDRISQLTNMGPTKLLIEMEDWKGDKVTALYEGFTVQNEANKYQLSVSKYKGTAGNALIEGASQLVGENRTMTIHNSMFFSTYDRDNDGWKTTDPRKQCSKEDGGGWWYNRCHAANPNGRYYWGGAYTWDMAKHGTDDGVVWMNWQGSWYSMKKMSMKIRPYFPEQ
T1 sequence (looked up) 3: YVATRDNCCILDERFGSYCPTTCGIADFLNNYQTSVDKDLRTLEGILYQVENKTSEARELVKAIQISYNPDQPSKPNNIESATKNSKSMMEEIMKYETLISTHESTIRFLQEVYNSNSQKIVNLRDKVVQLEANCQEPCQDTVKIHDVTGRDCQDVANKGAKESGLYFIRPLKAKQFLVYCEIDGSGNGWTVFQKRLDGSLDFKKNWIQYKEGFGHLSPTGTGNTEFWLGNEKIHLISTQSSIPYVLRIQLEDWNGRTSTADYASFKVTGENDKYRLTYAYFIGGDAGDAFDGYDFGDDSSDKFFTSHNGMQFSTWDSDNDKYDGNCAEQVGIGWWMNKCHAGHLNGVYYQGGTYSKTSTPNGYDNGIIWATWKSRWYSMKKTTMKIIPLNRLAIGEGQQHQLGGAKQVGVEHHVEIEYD
Protocol: (§1) For this specificity profiling test the different proteins and controls were coated on two 384-well MSD plates with a concentration of 1 μg/ml at 4° C. over night. Plates were blocked with BSA and washed three times with PBS with 0.05% (v/v) Tween 20. Antibody samples were diluted to 100 nM and 10 nM in assay buffer (PBS with 0.5% (w/v) BSA, 0.05% (v/v) Tween 20). […] Samples and controls were incubated for three hours at room temperature. The plates were washed three times and 30 μl detection antibody (ECL-labeled anti-human Fab) were added per well and incubated for 1 h. After washing, MSD Read Buffer T with surfactant was added and electrochemiluminescence signals were detected using a Sector Imager 6000 (Meso Scale Discovery, Gaithersburg, Md., USA).

Transferrin (bovine) = Transferrin (bovine) (bovine, UniProt Q29443 20-704)
Protocol: as §1

Antitrypsin (human) = Antitrypsin (human) (human, UniProt P01009 25-418)
Protocol: as §1

[1] = target: Cell surface receptor 1 (human) (human)
Protocol: as §1

Cytokine 1 (human) = Cytokine 1 (human) (human)
Protocol: as §1

[2] = target: Cell surface receptor 2 (human) (human)
Protocol: as §1

Pepsinogen (pork) = Pepsinogen (pork) (pork, UniProt P00791 16-385)
Protocol: as §1

Myoglobin (horse) = Myoglobin (horse) (horse, UniProt P68082 2-154)
Protocol: as §1

Lectin (Lens culinaris) = target: T2, Lectin (Lens culinaris) (Lens culinaris, UniProt P02870 31-210; P02870 218-269, limits assumed)
T2 sequence (looked up) 1: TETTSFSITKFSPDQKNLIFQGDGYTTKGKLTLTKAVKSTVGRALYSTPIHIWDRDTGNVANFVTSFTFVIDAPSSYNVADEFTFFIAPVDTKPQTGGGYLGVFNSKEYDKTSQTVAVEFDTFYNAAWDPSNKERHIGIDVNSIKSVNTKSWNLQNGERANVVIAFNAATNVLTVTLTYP
T2 sequence (looked up) 2: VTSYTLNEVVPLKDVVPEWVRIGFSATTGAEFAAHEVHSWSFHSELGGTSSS
Protocol: as §1

RNase A (cow) = target: T3, RNase A (cow) (cow, UniProt P61823 27-150)
T3 sequence (looked up): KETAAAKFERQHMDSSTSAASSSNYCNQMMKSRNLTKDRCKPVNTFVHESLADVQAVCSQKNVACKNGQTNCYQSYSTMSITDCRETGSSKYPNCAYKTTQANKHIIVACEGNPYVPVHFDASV
Protocol: as §1

Measured: signal normalized to reference antibody MOR03207

Chain of Antitrypsin (human) (P01009 25-418 limits assumed): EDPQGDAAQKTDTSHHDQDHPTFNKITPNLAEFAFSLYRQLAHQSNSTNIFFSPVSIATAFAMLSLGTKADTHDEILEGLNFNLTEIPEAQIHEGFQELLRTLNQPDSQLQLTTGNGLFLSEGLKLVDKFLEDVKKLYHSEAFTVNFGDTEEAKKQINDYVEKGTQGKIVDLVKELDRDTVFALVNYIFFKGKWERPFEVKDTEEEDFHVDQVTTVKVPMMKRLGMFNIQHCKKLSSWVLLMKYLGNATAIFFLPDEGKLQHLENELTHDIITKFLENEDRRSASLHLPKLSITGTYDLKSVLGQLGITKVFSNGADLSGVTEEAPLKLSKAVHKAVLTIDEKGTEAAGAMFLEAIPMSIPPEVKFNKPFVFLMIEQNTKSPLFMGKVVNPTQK
Chain of Myoglobin (horse) (P68082 2-154 limits assumed): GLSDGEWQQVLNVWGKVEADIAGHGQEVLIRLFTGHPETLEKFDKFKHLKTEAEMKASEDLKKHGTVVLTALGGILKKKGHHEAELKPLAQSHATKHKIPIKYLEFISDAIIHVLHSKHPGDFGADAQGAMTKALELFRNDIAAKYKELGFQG
Chain of Transferrin (bovine) (Q29443 20-704 limits assumed): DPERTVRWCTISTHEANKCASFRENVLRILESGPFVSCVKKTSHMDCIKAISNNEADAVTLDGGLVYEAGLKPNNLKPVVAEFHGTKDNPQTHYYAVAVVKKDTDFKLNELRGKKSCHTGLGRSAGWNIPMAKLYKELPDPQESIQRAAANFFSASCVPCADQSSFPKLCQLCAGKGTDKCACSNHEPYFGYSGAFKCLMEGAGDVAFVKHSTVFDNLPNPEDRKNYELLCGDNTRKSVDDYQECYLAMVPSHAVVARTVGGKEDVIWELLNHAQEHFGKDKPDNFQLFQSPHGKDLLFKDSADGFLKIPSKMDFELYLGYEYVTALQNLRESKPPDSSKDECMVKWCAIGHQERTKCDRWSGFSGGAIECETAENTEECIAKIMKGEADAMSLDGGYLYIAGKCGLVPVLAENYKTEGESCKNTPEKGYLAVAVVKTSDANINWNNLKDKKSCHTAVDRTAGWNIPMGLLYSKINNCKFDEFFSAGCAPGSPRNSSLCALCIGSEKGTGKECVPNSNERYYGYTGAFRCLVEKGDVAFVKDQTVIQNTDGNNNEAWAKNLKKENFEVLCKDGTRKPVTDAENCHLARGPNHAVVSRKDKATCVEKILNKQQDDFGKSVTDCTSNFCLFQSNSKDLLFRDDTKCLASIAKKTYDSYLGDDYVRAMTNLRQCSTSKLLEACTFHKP
Chain of Pepsinogen (pork) (P00791 16-385): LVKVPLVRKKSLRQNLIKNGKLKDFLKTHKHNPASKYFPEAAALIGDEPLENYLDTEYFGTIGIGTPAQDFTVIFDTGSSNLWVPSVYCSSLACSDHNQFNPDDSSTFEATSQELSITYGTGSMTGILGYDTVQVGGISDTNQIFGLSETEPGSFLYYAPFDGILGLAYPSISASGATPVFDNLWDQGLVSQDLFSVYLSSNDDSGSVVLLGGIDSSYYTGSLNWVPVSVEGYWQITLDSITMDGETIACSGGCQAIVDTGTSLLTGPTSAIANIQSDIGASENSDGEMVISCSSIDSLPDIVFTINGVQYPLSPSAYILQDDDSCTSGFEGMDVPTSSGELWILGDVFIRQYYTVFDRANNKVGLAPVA

B1: Camille (format not stated) (antibody, V domains shown)
VH: QVQLQQSGPGLVKPSQTLSLTCAISGESVSTSSAAWNWIRQSPSRGLEWLGRTYYRSKWKHEYAVSVKSRITINPDTSKNQFSLQLNSVTPEDTAVYYCARDRYYYSAFDYWGQGTLVTVSS
VL: QSALTQPASVSGSPGQSITISCTGTSSDVGGYNSVSWYQQHPGKAPKLLIYAVSNRPSGVSNRFSGSKSGNTASLTISGLQAEDEADYYCASYDERFTRVFGGGTKLTVLG
notes: also called Antibody Camille
1 ratio: all assays above
